Assay [1] deals with intact ZIKV particles (ZIKV envelope protein) (Zika virus). The assay is described as follows: direct ELISA on coated intact ZIKV particles (10-fold dilutions), antibody 1 ug/ml, anti-mouse IgG-HRP; LOD = blank + 3 SD.
Assay [2] shares this target. Briefly: direct ELISA on coated intact ZIKV particles (10-fold dilutions), antibody 1 ug/ml, anti-mouse IgG-HRP; FPLR fit. In general terms: An ELISA detects its analyte on a solid surface through an enzyme-linked reagent.
Assay [3] has the same target. The assay is described as follows: direct ELISA on coated intact ZIKV particles (10-fold dilutions), biotinylated peptide 2 uM, streptavidin-HRP; FPLR fit.
The target is the same in assay [4]. The assay is described as follows: direct ELISA on coated intact ZIKV particles (10-fold dilutions), biotinylated peptide 2 uM, streptavidin-HRP; LOD = blank + 3 SD.
Assay [5] has the same target. The assay is described as follows: direct ELISA on coated intact ZIKV particles, mono-arm peptide 20 uM in urine (1:1) or serum (1:10); data not shown.
The target is the same in assay [6]. Briefly: direct ELISA on coated intact ZIKV particles (10-fold dilutions), biotinylated peptide 20 uM, streptavidin-HRP; FPLR fit.
Assay [7] shares this target. Briefly: direct ELISA on coated intact ZIKV particles (10-fold dilutions), biotinylated peptide 20 uM, streptavidin-HRP; LOD = blank + 3 SD.
Assay [8] shares this target. Briefly: direct ELISA on coated intact ZIKV particles (10-fold dilutions), biotinylated peptide 5 uM, streptavidin-HRP; LOD = blank + 3 SD.
The target in assay [9] is intact DENV-2 particles (Dengue virus serotype 2). The assay is described as follows: direct ELISA, plates coated with 10^5 copies/mL of intact virus particles.
For assay [10], the target named is intact DENV-1 particles (Dengue virus serotype 1). Described as above.
Assay [11] concerns the target intact DENV-3 particles (Dengue virus serotype 3). Described as above.
The target in assay [12] is intact ZIKV particles (ZIKV envelope protein) (Zika virus). The assay is described as follows: direct ELISA on coated intact ZIKV particles (10-fold dilutions), biotinylated peptide 5 uM, streptavidin-HRP; FPLR fit.
The target is the same in assay [13]. Briefly: direct ELISA on coated intact ZIKV particles (10-fold dilutions), biotinylated peptide 0.5 uM, streptavidin-HRP; LOD = blank + 3 SD.
For assay [14] the target is unchanged. Briefly: direct ELISA on coated intact ZIKV particles (10-fold dilutions), biotinylated peptide 0.5 uM, streptavidin-HRP; FPLR fit.

As to antibody 4G2 hybridoma mouse IgG2a, the LOD (log[ZIKV], copies/mL) in assay [1] worked out at 5.8. For the same molecule, in [2], the FPLR C50 (log[ZIKV], copies/mL) is 6.2 and the FPLR minimum is 0.04 ΔA.

Consider WPWIGTGPGCCGPGKTDAYS (designed binder, maleimide-PEG2-biotin on the cysteines of the bridge (thioether)) [clamp peptide C4], for which, in [3], the FPLR C50 (log[ZIKV], copies/mL) turned out to be 6.3 and the FPLR minimum is 0.02 ΔA. For the same molecule, in assay [4], the LOD (log[ZIKV], copies/mL) was found to be 5.7.

Regarding WPHTQGPGCCGPGSWPGQ (designed binder, maleimide-PEG2-biotin on the cysteines of the bridge (thioether)) [clamp peptide C1], in assay [3], the FPLR C50 (log[ZIKV], copies/mL) came out at 6.3 and the FPLR minimum was 0.03 ΔA. In addition, the LOD (log[ZIKV], copies/mL) in [4] is 4.8.

For the molecule CKRNATP (maleimide-PEG2-biotin on the N-terminal cysteine) [mono-arm peptide X1], the lowest ZIKV concentration detected in urine or serum in assay [5] worked out at 1e+07 copies/mL. Also, in assay [6], the FPLR C50 (log[ZIKV], copies/mL) is 6.1 and the FPLR minimum is 0.03 ΔA. Also, in [7], the LOD (log[ZIKV], copies/mL) amounted to 4.8.

As to MDSPIKGPGCCGPGKRNATP (designed binder, maleimide-PEG2-biotin on the cysteines of the bridge (thioether)) [clamp peptide C7], the LOD (log[ZIKV], copies/mL) in [8] came to 3.7. For the same molecule, the signal decrease against the ZIKV signal in [9], in [10] and in [11] was 70% each time. Moreover, the FPLR C50 (log[ZIKV], copies/mL) in assay [12] was found to be 5.8. Also, the FPLR minimum in assay [12] is 0.01 ΔA.

Regarding MDSPIKGPGCCGPGKTDAYS (designed binder, maleimide-PEG2-biotin on the cysteines of the bridge (thioether)) [clamp peptide C8], the LOD (log[ZIKV], copies/mL) in [8] turned out to be 4.7. Besides, in [12], the FPLR C50 (log[ZIKV], copies/mL) turned out to be 6.2 and the FPLR minimum was 0.03 ΔA.

For the molecule CKTDAYS (maleimide-PEG2-biotin on the N-terminal cysteine) [mono-arm peptide X2], in assay [6], the FPLR C50 (log[ZIKV], copies/mL) was 6.1 and the FPLR minimum is 0.01 ΔA. In addition, the LOD (log[ZIKV], copies/mL) in assay [7] came to 5.8.

In the case of AGRRPGPGCCGPGSWPGQ (designed binder, maleimide-PEG2-biotin on the cysteines of the bridge (thioether)) [clamp peptide C5], the LOD (log[ZIKV], copies/mL) in assay [8] worked out at 5.8. Besides, in assay [12], the FPLR C50 (log[ZIKV], copies/mL) was determined as 6.4 and the FPLR minimum is 0.01 ΔA.

Consider AGRRPGPGCCGPGLRGHA (designed binder, maleimide-PEG2-biotin on the cysteines of the bridge (thioether)) [clamp peptide C6], for which the LOD (log[ZIKV], copies/mL) in assay [13] amounted to 3.5. Moreover, the signal decrease against the ZIKV signal was determined as 45% in assay [9] and 55% in assay [11]. In addition, the FPLR C50 (log[ZIKV], copies/mL) in assay [14] came out at 5.2. The FPLR minimum in assay [14] was 0.05 ΔA.

As to WPHTQGPGCCGPGLRGHA (designed binder, maleimide-PEG2-biotin on the cysteines of the bridge (thioether)) [clamp peptide C2], in assay [3], the FPLR C50 (log[ZIKV], copies/mL) is 6.2 and the FPLR minimum was 0.05 ΔA. The LOD (log[ZIKV], copies/mL) in [4] turned out to be 4.5.

For WPWIGTGPGCCGPGKRNATP (designed binder, maleimide-PEG2-biotin on the cysteines of the bridge (thioether)) [clamp peptide C3], in [13], the LOD (log[ZIKV], copies/mL) was 3.5. Moreover, the signal decrease against the ZIKV signal in assay [9], in assay [10] and in assay [11] was 70% each time. The same molecule yielded an FPLR C50 (log[ZIKV], copies/mL) in assay [14] of 5.3. Further, in assay [14], the FPLR minimum was 0.05 ΔA.

In the case of CSWPGQ (maleimide-PEG2-biotin on the N-terminal cysteine) [mono-arm peptide P1], the LOD (log[ZIKV], copies/mL) in assay [7] came to 6.8.

In turn, CLRGHA (maleimide-PEG2-biotin on the N-terminal cysteine) [mono-arm peptide P2] registered a lowest ZIKV concentration detected in urine or serum in [5] of 1e+06 copies/mL. Further, in assay [6], the FPLR C50 (log[ZIKV], copies/mL) stood at 6.2 and the FPLR minimum is 0.04 ΔA. For the same molecule, in assay [7], the LOD (log[ZIKV], copies/mL) was determined as 4.5.

The values above are taken from patent US20190385705A1.
